Test results as given in patent US20250270343A1 (Alector, published 2025).
Substitutions are numbered along the chain they refer to. Each block holds one binder with its values, some of them ahead of it.

Columns and labels:
[1] = molecular target: T1, full-length untagged human GPNMB expressed on cells (human, UniProt Q14956 23-572); test: cell-based or functional assay
T1 sequence: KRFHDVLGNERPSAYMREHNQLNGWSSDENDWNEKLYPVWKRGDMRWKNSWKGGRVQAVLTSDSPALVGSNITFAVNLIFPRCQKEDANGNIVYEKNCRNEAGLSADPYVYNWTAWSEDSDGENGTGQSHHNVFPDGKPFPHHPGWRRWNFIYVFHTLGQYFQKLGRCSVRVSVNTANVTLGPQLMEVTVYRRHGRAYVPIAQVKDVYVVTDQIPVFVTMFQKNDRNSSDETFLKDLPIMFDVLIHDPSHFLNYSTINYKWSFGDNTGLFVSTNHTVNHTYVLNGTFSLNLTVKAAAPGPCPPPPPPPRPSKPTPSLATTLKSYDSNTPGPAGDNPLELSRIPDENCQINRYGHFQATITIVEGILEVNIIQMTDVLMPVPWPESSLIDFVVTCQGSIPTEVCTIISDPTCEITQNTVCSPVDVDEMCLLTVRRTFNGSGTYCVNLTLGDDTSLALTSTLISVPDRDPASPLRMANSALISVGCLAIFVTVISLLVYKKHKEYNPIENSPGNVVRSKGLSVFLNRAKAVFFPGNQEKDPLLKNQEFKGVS

[2] = molecular target: T1, full-length untagged human GPNMB …; test: cell-based or functional assay; remark: listed apart in the source
[3] = molecular target: T2, soluble mouse GPNMB (recombinant extracellular domain) (mouse, UniProt Q99P91 23-502); test: SPR Biacore T200, IgG captured on Protein A/G; nb = no binding observed
T2 construct: also called moGPNMB; not shown: C-terminal polyhistidine or Avi-His tag
T2 sequence: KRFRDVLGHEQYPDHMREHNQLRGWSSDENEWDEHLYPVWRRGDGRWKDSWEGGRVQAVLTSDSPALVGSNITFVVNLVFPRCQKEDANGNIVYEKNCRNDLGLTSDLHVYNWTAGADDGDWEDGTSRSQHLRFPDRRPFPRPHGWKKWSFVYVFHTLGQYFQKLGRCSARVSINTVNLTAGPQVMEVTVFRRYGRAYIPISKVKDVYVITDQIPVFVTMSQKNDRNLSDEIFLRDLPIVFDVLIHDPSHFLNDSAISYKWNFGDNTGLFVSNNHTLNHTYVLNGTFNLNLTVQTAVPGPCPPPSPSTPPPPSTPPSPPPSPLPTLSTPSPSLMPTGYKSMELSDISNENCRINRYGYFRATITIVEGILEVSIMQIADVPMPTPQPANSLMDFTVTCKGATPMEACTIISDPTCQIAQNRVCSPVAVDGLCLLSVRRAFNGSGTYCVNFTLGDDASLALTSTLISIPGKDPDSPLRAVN

[4] = molecular target: T3, soluble human GPNMB (recombinant extracellular domain) (human, UniProt Q14956 23-498); test: SPR Biacore, IgG captured
T3 construct: also called huGPNMB; recombinant human GPNMB extracellular domain; not shown: C-terminal polyhistidine or Avi-His tag
T3 sequence: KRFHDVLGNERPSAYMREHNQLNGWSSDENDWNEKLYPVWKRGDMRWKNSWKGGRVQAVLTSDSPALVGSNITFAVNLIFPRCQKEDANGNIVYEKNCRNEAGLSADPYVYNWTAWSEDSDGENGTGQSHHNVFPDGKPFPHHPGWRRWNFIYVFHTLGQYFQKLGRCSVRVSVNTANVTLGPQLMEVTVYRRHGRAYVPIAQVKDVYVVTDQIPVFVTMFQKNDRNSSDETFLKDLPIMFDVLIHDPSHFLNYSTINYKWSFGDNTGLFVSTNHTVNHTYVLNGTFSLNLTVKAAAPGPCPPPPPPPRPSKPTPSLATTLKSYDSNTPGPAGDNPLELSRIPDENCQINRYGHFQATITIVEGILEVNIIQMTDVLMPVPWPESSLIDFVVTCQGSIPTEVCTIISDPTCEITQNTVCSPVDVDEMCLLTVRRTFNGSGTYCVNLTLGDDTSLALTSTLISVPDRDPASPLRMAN
Method: (§1) Binding kinetics of the humanized and affinity matured anti-GPNMB antibodies described above were evaluated using the Biacore T200 (Cytiva). Briefly, IgGs were diluted to 10 μg/mL and captured using a Protein A/G (ThermioFisher, #21186) surface on a CM5 chip that was prepared by amine coupling according to the instrument manufacturer's recommendations. The captured antibodies were tested for their ability to bind human, cynomolgus monkey, and mouse GPNMB recombinant proteins as follows.
(§2) Human, cynomolgus, and mouse GPNMB analytes were diluted in running buffer (HBS-EP+, Teknova, #8022, with 0.5 mg/ml BSA, MP Biomedicals LLC, #820451), to a concentration of 300 nM, then diluted 3-fold serially to 100 nM, 33 nM, and 11 nM. Each sample was injected for 2 minutes to allow association, followed by dissociation in buffer alone for 10 minutes. Each sample injection was followed by the regeneration of the chip with three 30-second injections of 10 mM glycine, pH 1.7. Fresh antibody was captured at the beginning of each cycle.
(§3) Data were analyzed using Biacore evaluation software to generate kinetic constants. The equilibrium dissociation constants (KD) were calculated from the fitted association and dissociation rate constants (k-on and k-off) for each of the anti-GPNMB antibodies.

[5] = molecular target: T4, soluble cynomolgus GPNMB (recombinant extracellular domain) (cynomolgus, UniProt Q14956 23-499 (human entry), limits assumed); test: SPR Biacore, IgG captured
T4 chain: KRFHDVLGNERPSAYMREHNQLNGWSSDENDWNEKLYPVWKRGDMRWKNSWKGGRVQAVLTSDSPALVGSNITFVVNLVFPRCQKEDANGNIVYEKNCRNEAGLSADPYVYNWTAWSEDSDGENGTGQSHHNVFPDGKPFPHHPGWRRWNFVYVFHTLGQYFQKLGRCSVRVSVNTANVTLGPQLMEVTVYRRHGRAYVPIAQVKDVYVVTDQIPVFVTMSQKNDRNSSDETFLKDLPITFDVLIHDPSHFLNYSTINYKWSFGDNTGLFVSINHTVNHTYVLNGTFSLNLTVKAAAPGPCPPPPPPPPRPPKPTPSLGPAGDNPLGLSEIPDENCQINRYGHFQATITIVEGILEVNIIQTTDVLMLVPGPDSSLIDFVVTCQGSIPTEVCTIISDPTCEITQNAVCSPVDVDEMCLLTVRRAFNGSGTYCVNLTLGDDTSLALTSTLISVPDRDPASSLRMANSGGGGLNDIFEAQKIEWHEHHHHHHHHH
Method: as §1, §2, §3

[6] = molecular target: T1, full-length untagged human GPNMB …; test: FACS titration, FS293-huGPNMB+ cells
Method: Affinity matured anti-GPNMB antibodies of the present disclosure were examined to determine their ability to bind human and mouse GPNMB expressed on FS293-huGPNMB+ or B16F10 cells, respectively. Cell-based affinity measurements were performed to ascertain the apparent affinities of anti-GPNMB antibodies to cell-surface expressed GPNMB. Serial dilutions of anti-GPNMB antibodies of the present disclosure were added to 100,000 FS293-huGPNMB+ or B16F10 cells and allowed to achieve binding equilibrium at 4° C. After addition of fluorescently labeled secondary antibody and brief washing steps, MFI values as a function of titrated antibody concentration were recorded via FACS analysis. Equilibrium binding curves were fit using nonlinear regression analysis with Graphpad Prism 6 software.

[7] = molecular target: T1, full-length untagged human GPNMB …; test: cell-based or functional assay; remark: listed apart in the source
[8] = molecular target: T2, soluble mouse GPNMB (recombinant …); test: SPR Biacore, IgG captured
Method: as §1, §2, §3

EC50 GCase [1]: 0.27 nM
Fold Increase GCase (max response at 1 µg/ml) [1]: 1.25 fold
EC50 PDL1 [2]: 1.36 nM
Fold Increase CD40 (max response at 1 µg/ml) [2]: 1.59 fold
Fold Increase PDL1 (max response at 1 µg/ml) [2]: 1.99 fold
Kd [4]: 66.5 nM
koff [4]: 0.005 s⁻¹
kon [4]: 75000 M⁻¹ s⁻¹
Kd [5]: 67.8 nM
koff [5]: 0.0057 s⁻¹
kon [5]: 83000 M⁻¹ s⁻¹
B1: anti-GPNMB antibody GPN-92 (antibody, V domains shown)
VH: QVQLVQSGAEVKKPGASVKVSCKASGYTFTSYWMHWVRQAPGQGLEWMGEINPSDGRTNYAQKFQGRVTMTVDKSTSTVYMELSSLRSEDTAVYYCARSGGNYAWFAYWGQGTLVTVSS
VL: DIVMTQSPDSLAVSLGERATINCKASQDVSPSLAWYQQKPGQPPKLLIYSASYRYTGVPDRFSGSGSGTDFTLTISSLQAEDVAVYYCQQHYSIPLTFGGGTKVEIK
notes: humanized GPN-08
binding result [3]: no binding (tested: 300 nM highest analyte concentration)

EC50 GCase [1]: 0.54 nM
Fold Increase GCase (max response at 1 µg/ml) [1]: 1.4 fold
EC50 [6]: 0.186 nM
Inflammasome: Fold Decrease IL-1β (max response at 0.3 µg/ml) [7]: 0.532 fold
EC50 PDL1 [2]: 1.14 nM
Fold Increase CD40 (max response at 1 µg/ml) [2]: 1.72 fold
Fold Increase PDL1 (max response at 1 µg/ml) [2]: 1.88 fold
Kd [4]: 5.4 nM
koff [4]: 0.00042 s⁻¹
kon [4]: 78000 M⁻¹ s⁻¹
Kd [5]: 6.5 nM
koff [5]: 0.00051 s⁻¹
kon [5]: 78000 M⁻¹ s⁻¹
B2: anti-GPNMB antibody GPN-94 (antibody, V domains shown)
VH: B1 VH with S54Y, G56Q, G100T
VL: B1 VL with A25T, Y53K
binding result [3]: no binding (tested: 300 nM highest analyte concentration)

EC50 GCase [1]: 0.5 nM
Fold Increase GCase (max response at 1 µg/ml) [1]: 1.45 fold
EC50 [6]: 0.568 nM
Inflammasome: Fold Decrease IL-1β (max response at 0.3 µg/ml) [7]: 0.594 fold
Fold Increase CD40 (max response at 1 µg/ml) [2]: 1.87 fold
Fold Increase PDL1 (max response at 1 µg/ml) [2]: 2.18 fold
Kd [4]: 8.7 nM
koff [4]: 0.00059 s⁻¹
kon [4]: 68000 M⁻¹ s⁻¹
Kd [5]: 10.6 nM
koff [5]: 0.00071 s⁻¹
kon [5]: 67000 M⁻¹ s⁻¹
B3: anti-GPNMB antibody GPN-93 (antibody, V domains shown)
VH: B1 VH with S54Y, G56Q, G100T
VL: B1 VL with A25T, Y53K, T97Q
binding result [3]: no binding (tested: 300 nM highest analyte concentration)

EC50 GCase [1]: 0.23 nM
Fold Increase GCase (max response at 1 µg/ml) [1]: 1.31 fold
EC50 [6]: 0.652 nM
Inflammasome: Fold Decrease IL-1β (max response at 0.3 µg/ml) [7]: 0.525 fold
EC50 PDL1 [2]: 0.58 nM
Fold Increase CD40 (max response at 1 µg/ml) [2]: 1.72 fold
Fold Increase PDL1 (max response at 1 µg/ml) [2]: 1.9 fold
Kd [4]: 2.5 nM
koff [4]: 0.0002 s⁻¹
kon [4]: 78000 M⁻¹ s⁻¹
Kd [5]: 3.2 nM
koff [5]: 0.00025 s⁻¹
kon [5]: 77000 M⁻¹ s⁻¹
B4: anti-GPNMB antibody GPN-96 (antibody, V domains shown)
VH: B1 VH with S54Y, G56Q, G100T
VL: B1 VL with S50R
binding result [3]: no binding (tested: 300 nM highest analyte concentration)

EC50 GCase [1]: 0.23 nM
Fold Increase GCase (max response at 1 µg/ml) [1]: 1.33 fold
EC50 [6]: 0.181 nM
Inflammasome: Fold Decrease IL-1β (max response at 0.3 µg/ml) [7]: 0.45 fold
EC50 PDL1 [2]: 0.7 nM
Fold Increase CD40 (max response at 1 µg/ml) [2]: 1.74 fold
Fold Increase PDL1 (max response at 1 µg/ml) [2]: 1.97 fold
Kd [4]: 7.3 nM
koff [4]: 0.00053 s⁻¹
kon [4]: 73000 M⁻¹ s⁻¹
Kd [5]: 8.3 nM
koff [5]: 0.0006 s⁻¹
kon [5]: 71000 M⁻¹ s⁻¹
B5: anti-GPNMB antibody GPN-95 (antibody, V domains shown)
VH: B1 VH with S54Y, G56Q, G100T
VL: B1 VL with A25T, S52R, T97Q
notes: also called PGN-95
binding result [3]: no binding (tested: 300 nM highest analyte concentration)

EC50 GCase [1]: 0.365 nM
EC50 Lyso Tracker [1]: 0.64 nM
Fold Decrease Lyso Tracker (max response at 1 µg/ml) [1]: 0.569 fold
Fold Increase GCase (max response at 1 µg/ml) [1]: 1.54 fold
Inflammasome: Fold Decrease IL-1β (max response at 0.3 µg/ml) [7]: 0.378 fold
EC50 PDL1 [2]: 1.94 nM
Fold Increase CD40 (max response at 1 µg/ml) [2]: 2.29 fold
Fold Increase PDL1 (max response at 1 µg/ml) [2]: 4.6 fold
Kd [4]: 11.9 nM
koff [4]: 0.0024 s⁻¹
kon [4]: 200000 M⁻¹ s⁻¹
Kd [5]: 13.5 nM
koff [5]: 0.0022 s⁻¹
kon [5]: 160000 M⁻¹ s⁻¹
Kd [8]: 2.6 nM
koff [8]: 0.00039 s⁻¹
kon [8]: 150000 M⁻¹ s⁻¹
B6: anti-GPNMB antibody GPN-82 (antibody, V domains shown)
VH: QVQLQESGPGLVKPSETLSLTCTVSGISITTGNYRWSWIRQPPGKGLEWIGYIYYSGTIIYNPSLKSRVTITRDTSKNQFSLELSSVTAADTAVYYCARDLTHWYFDVWGQGTLVTVSS
VL: DIVMTQSPDSLAVSLGERATINCKSSRSVDYYGIGFLNWYQQKPGQPPKLLIYATSTQGSGVPDRFSGSGSGTDFTLTISSLQAEDVAVYYCQQQKEVPPTFGGGTKVEIK
